The test deals with GCN4-p1. The test can be described thus: size exclusion chromatography, self-association.

GCN4-p1 (peptide; modification not given), sequence (chain, as listed by the source): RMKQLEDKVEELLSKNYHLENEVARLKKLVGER

The substance “GCN4-p1 (peptide; modification not given)” yielded an oligomerization state (N) of 2.

For the origin of these results see patent US6950754.
